Experimental findings from publication PMC10949515 (Journal of Virology, 2024) are described below.

Numbering of substitutions follows the chain as printed.

The chains are these.
B1: human FLNB C-terminal fragment R22–24, His6-tagged (domain or fragment, UniProt O75369 2282-2601, looked up)
chain: APSDDARRLTVMSLQESGLKVNQPASFAIRLNGAKGKIDAKVHSPSGAVEECHVSELEPDKYAVRFIPHENGVHTIDVKFNGSHVVGSPFKVRVGEPGQAGNPALVSAYGTGLEGGTTGIQSEFFINTTRAGPGTLSVTIEGPSKVKMDCQETPEGYKVMYTPMAPGNYLISVKYGGPNHIVGSPFKAKVTGQRLVSPGSANETSSILVESVTRSSTETCYSAIPKASSDASKVTSKGAGLSKAFVGQKSSFLVDCSKAGSNMLLIGVHGPTTPCEEVSMKHVGNQQYNVTYVVKERGDYVLAVKWGEEHIPGSPFHVTV
notes: also called R22–R24; FLNB R22-24
B2: C4 N-terminal residues 1–149, His6-tagged (domain or fragment)
chain: MDTIKIFNHGEFDTIRNELVNLLKVVKWNTINSNVTVSSTDTIDISDCIREILYKQFKNVRNIEVSSDISFIKYNRFNDTTLTDDNVGYYLVIYLNRTKSVKTLIYPTPETVITSSEDIMFSKSLNFRFENVKRDYKLVMCSISLTYKP
notes: also called C4-N 1–149

Series [1] concerns the molecule itself.
Series [2] addresses B1. In words: ITC. Particulars: both partners purified.
Series [3] concerns the target T1, human FLNB C-terminal fragment R23–24, His6-tagged (human, UniProt O75369 2379-2601).
T1 construct: also called R23–R24; FLNB R23-24
T1 sequence (looked up): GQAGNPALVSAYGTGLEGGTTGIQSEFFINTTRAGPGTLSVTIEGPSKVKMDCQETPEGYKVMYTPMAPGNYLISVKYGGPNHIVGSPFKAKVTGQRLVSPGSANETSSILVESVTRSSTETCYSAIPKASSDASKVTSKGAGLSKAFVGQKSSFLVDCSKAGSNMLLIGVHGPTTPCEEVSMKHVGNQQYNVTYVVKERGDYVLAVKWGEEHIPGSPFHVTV
In words: ITC. Particulars: both partners purified.

Series [4] deals with T2, FLNB R22–24 dimerization-deficient mutant (M2544E, L2546D), His6-tagged (human, UniProt O75369 2282-2601, M2544E | L2546D).
T2 construct: also called mR22–R24; mR22–24
T2 sequence (looked up): B1 chain with M263E, L265D
Put plainly: SEC. Conditions: both partners purified.

Consider B1, for which the binding result in series [1] is reported as “binds”.

In general, Kd refers to the concentration at which binding is half-saturated. High values mean a looser complex, low ones a tighter complex. Consider B2, for which the Kd is 41.5 ± 30 nM in series [2] and < 1 nM in series [3]. Also, the binding result in series [4] was “binds”.
